Molecular target: SARS-CoV-2 Omicron BA.4 Spike (on pseudovirions) (SARS-CoV-2 Omicron BA.4)
Assay: cell-based or functional assay

B1: COV30-14 (antibody, V domains shown)
VH: QVQLVQSGAEVKKPGASVKVSCQTSGYTFTSYYMHWVRQAPGQGLEWMGLITPSGDDTYYAQRFQGRVTMTRDTSTSPTYMELSSLTSEDTAVYYCAKMSRAGGFDVWGQGTLVTVSS
VL: EVVLTQSPGTLSLSPGERATLSCRASQSITGRYLAWYQQKPGQAPRLLMYGESSRVTGIPDRFSGGGSGTDFTLTISRLEPEDFAVYYCQHFASSPPTYTFGQGTKLEIR
notes: also called the antibody according to the invention; the antibody according to invention
B1 was tested, and the “Pseudovirion neutralization IC50 (geometric mean)” value was 7.6 µg/mL.
